From US10869937B2, “Polymer derivatives, and novel polymer derivative imaging probe using same” (Nippon Kayaku Kabushiki Kaisha, priority 2016, dated 2020)

Assay: Average particle size measurement with single nanoparticle size analyzer IG-1000 (induced diffraction grating method)
Type: physicochemical
Conditions: 1 mg/mL in ultrapure water, 25° C.
Procedure: The particle size (average particle size) of the nanoparticles according to the invention is measured by, for example, an induced diffraction grating method. An induced diffraction grating method is a method of: (1) irradiating a 1 or 2 mg/mL aqueous solution of the block copolymer of the present invention or a composition including the block copolymer with laser light, thereby forming diffraction gratings by dielectrophoresis; (2) stopping an external force that causes dielectrophoresis, measuring the annihilation rate of the diffraction gratings caused by diffusion, and (3) applying the annihilation rate to the Stokes-Einstein relational equation to obtain the particle size. For example, the particle size may be measured with a single nanoparticle size measuring apparatus, IG-1000, manufactured by Shimadzu Corp.
Measurement of the average particle sizes of the block copolymers of Synthesis Examples and Examples and compositions including those block copolymers was carried out using a single nanoparticle size analyzer, IG-1000, manufactured by Shimadzu Corp. (measurement temperature: 25° C., light intensity at t=0: 100 to 200). Regarding the sample for measuring the average particle size, a solution produced using ultrapure water to a block copolymer concentration of 1 mg/mL or 2 mg/mL and filtered through a 0.45 μm membrane filter, was used.

Substance: 7-ethyl-10-hydroxycamptothecin (EHC)-Bonded and ALEXA FLUOR (registered trademark) 594 Cadaverin (Alexa)-Bonded Product of Polyethylene Glycol (2 kDa)-Polyglutamic Acid (8.3 Polymerization Units) Block Copolymer [Example 3]
- average particle size: 10 nm
